Patent publication US20180244758A1 (MAPP BIOPHARMACEUTICAL, published 2018)
Residue numbers refer to the chain shown, from its start.

T1: EBOV GP on rVSV particles (Ebola virus (EBOV), UniProt Q05320 33-676)
T1 sequence: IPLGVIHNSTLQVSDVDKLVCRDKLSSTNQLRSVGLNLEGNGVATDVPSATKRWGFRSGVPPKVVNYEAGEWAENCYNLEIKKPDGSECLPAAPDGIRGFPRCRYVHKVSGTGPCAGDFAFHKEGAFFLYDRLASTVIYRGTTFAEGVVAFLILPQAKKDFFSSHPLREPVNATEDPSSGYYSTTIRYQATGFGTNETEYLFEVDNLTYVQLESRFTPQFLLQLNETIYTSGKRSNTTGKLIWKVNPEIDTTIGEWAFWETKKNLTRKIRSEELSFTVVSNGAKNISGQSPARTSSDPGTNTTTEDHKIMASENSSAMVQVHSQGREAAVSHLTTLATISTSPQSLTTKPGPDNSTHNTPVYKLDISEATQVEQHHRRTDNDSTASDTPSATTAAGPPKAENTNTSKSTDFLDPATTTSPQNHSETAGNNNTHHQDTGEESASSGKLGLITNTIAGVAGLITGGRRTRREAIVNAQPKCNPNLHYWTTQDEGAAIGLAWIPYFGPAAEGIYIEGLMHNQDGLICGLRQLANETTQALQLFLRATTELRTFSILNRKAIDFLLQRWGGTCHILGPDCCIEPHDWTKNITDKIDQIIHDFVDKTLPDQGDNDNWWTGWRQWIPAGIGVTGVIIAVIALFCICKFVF

T2: SUDV GP on rVSV particles (Sudan virus (SUDV), UniProt Q66814 33-676)
T2 sequence: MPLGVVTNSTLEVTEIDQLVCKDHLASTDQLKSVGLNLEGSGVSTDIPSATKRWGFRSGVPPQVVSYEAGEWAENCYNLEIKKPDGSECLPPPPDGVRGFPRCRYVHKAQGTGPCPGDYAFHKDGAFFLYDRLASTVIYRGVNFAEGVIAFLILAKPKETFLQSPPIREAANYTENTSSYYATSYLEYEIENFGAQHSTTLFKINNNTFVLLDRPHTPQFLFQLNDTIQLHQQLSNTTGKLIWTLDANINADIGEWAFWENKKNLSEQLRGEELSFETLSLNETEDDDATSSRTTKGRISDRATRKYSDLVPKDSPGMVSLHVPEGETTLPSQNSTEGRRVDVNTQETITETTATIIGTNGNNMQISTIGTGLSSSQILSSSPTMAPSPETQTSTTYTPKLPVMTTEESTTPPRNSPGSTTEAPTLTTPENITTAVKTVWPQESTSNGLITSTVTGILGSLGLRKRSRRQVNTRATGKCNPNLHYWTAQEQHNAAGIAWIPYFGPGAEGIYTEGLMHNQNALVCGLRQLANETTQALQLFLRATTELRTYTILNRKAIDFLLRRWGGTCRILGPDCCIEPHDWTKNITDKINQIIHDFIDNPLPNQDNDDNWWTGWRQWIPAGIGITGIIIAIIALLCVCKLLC

T3: TAFV GP on VSV pseudotype particles (Tai Forest virus (TAFV), UniProt Q66810 33-676)
T3 sequence: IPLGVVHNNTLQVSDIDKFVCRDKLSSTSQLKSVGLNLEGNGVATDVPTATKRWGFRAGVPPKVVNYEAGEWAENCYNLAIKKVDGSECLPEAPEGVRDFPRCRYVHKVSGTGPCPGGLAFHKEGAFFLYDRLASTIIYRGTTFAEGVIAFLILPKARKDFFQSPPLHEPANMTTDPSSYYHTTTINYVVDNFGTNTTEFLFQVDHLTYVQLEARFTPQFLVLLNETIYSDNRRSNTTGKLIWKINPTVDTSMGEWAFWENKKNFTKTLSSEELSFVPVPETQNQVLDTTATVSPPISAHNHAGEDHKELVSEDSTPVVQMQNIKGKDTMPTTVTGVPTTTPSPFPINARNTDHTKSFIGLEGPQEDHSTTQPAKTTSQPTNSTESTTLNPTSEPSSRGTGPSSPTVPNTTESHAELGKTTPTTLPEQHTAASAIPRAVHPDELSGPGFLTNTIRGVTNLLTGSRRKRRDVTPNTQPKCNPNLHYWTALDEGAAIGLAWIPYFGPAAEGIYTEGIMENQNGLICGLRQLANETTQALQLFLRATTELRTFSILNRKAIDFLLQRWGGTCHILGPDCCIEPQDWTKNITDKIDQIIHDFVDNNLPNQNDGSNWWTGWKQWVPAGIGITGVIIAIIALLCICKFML

T4: RESTV GP on rVSV particles (Reston virus (RESTV), UniProt Q66799 34-677)
T4 sequence: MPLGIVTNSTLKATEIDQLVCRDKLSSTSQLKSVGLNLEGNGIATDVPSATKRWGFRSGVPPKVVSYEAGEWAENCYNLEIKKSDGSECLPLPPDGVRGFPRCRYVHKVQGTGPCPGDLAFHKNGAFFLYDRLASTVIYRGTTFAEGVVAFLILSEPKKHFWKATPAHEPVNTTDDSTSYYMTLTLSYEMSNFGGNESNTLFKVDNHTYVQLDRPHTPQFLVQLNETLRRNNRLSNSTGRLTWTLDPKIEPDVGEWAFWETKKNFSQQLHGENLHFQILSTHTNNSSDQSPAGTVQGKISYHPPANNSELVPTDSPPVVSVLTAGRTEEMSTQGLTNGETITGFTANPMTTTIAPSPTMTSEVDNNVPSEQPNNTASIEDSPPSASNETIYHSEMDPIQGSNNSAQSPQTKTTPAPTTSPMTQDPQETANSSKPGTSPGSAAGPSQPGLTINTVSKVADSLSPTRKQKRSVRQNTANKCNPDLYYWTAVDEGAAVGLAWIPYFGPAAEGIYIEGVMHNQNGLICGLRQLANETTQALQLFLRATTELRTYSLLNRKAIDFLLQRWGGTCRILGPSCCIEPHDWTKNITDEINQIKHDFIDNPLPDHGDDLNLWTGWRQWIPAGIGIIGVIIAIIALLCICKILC

B1: mAb PE-05 (antibody, V domains shown)
VH: QVQLQESGGGLVKPGRSLRLSCTASGFTFGDYAMSWFRQAPGKGLEWVGFLRSKAYGGTAEYAASVKGRFTMSRDDSKSIAYLQMNSLKTEDTAVYFCTRDGFRGSSWGYSYYGMDVWGQGTTVTVSS
VL: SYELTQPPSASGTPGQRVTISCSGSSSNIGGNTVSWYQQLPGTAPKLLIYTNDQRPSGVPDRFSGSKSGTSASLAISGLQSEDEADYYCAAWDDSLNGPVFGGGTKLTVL
B2: mAb PE-87 (antibody, V domains shown)
VH: QVQLVQSGVTLVQPGGSLRVSCAASGFTFSSYAMSWVRQAPGKGLEWVSAISGLGGSTYYADSVKGRFTISRDNSKNTLYLQMNSLRAEDTAVYYCAKDHRVWAAGYHFDYWGQGALVTVSS
VL: DIVLTQSPSTLSASVGDRVTITCRASQSISSWLAWYQQKPGEAPKLLISDASSLESGVPSRFSGSGSGTEFTLTISSLQPDDFATYYCQQYYSSPTFGGGTKVEIK
B3: mAb PE-24 (antibody, V domains shown)
VH: EVQLVESGGGLVQPGGSLRLSCAASGFTFSSYAMSWVRQAPGKGLEWVSEISGLGGSTYYADSAKGRFTISRDNSKSTLYLQMNSLRAEDTAVYYCAKDHRVWAPGYYFDHWGQGTLVTVSS
VL: B2 VL with E42K, S49Y, Y87F, Y92N, S93R
B4: mAb PE-47 (antibody, V domains shown)
VH: EVQLVESGGGLVKPGGSLRLSCAASGFTFSNAWMSWVRQAPGEGLEWVGRIKSKTDGGTIDYAAPVKGRFTISRDDSKNTVYLQMTSLKTEDTAVYYCTTYTEDMQYFDWLLRGGETFDYWGQGTLVTVSS
VL: DIQMTQSPSSLSASVGDRVTITCRASQYISTYLNWYQQKPGKAPKLLIYAAYNLQSGVPSRFSGSGSGTDFTLTISSLQPEDFATYYCQQSYSTPGRYTFGQGTKVEIK
B5: mAb PE-16 (antibody, V domains shown)
VH: QVQLVQSGAEVTKPGASVKVSCKASGYTFTTYYMHWVRQAPGQGLEWVGIINPSGGITRYAQKFQGRVTLTRDTSTTTVYMELSSLRSEDTAVYYCARDRYPVLFATDYGMDVWGQGTTVTVSS
VL: DIVMTQSPATLSLSPGERATLSCRASQSVSGYLAWYQQKPGQAPRLLIYDASNRATGIPARFSGSGSGTDFTLTISSLEPEDFAVYYCQQRSIWPPGVTFGGGTKVEIK

Legend:
Experiment in all cases: cell-based or functional assay
[1] = target: T1, EBOV GP on rVSV particles
[2] = target: T2, SUDV GP on rVSV particles
[3] = target: T3, TAFV GP on VSV pseudotype particles
[4] = target: T1, EBOV GP on rVSV particles; remark: listed apart in the source
[5] = target: T2, SUDV GP on rVSV particles; remark: listed apart in the source
[6] = target: BDBV GP on rVSV particles (Bundibugyo virus (BDBV))
[7] = target: T4, RESTV GP on rVSV particles
[8] = target: T3, TAFV GP on VSV pseudotype particles; remark: listed apart in the source

Row | Binder | Neutralization (VSV-GP IC50, nM) [1] | Neutralization (VSV-GP IC50, nM) [2] | Neutralization (VSV-GP IC50, nM) [3] | IC50 (nM), neutralization of rVSV-GP [4] | IC50 (nM), neutralization of rVSV-GP [5] | IC50 (nM), neutralization of rVSV-GP [6] | IC50 (nM), neutralization of rVSV-GP [7] | IC50 (nM), neutralization of rVSV-GP [8]
1 | B1 | 8.8 nM | 34 nM | 0.8 nM | – | – | – | – | –
2 | B2 | 0.5 nM | 0.3 nM | 1 nM | 1 nM | 0.8 nM | 0.4 nM | 0.1 nM | 0.9 nM
3 | B3 | 1.8 nM | 0.5 nM | 1.5 nM | – | – | – | – | –
4 | B4 | 6.6 nM | 5.1 nM | 6.1 nM | – | – | – | – | –
5 | B5 | 0.2 nM | – | 4.8 nM | – | – | – | – | –
